# Data taken from article PMC8752837 (2022).
# T1: GST-BAK (human)
# T1 chain: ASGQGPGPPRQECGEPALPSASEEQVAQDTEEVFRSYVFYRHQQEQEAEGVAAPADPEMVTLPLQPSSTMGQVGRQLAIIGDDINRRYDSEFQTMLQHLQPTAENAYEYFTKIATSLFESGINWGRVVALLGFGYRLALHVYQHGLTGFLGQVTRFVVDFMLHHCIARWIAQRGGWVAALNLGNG
# T2: tevBAK (residues 22–186) (human, UniProt Q16611 22-186)
# T2 chain: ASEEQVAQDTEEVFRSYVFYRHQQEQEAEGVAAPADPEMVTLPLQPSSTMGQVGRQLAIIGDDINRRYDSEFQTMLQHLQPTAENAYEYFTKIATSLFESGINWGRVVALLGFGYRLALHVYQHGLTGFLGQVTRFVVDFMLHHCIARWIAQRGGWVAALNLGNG
# Molecular target: T1, GST-BAK
# Experiment: FP
row,Binder,IC50
1,Ac-EDIIRNIARHLAQWGDSMDRSI-NH2 [W(3) BID BH3 peptide],6.6 µM
2,Ac-EDIIRNIARHLAQVGDSWDRSI-NH2 [W(4) BID BH3 peptide],11.5 µM
3,Ac-EDIIRNIARHLAQYGDSMDRSI-NH2 [Y(3) BID BH3 peptide],6.2 µM
4,Ac-EDIIRNIARHLAQVGDSYDRSI-NH2 [Y(4) BID BH3 peptide],6.9 µM
5,Ac-EDIIRNIARHLAQVGDSMDRSW-NH2 [W(5) BID BH3 peptide],8.8 µM
6,Ac-EDIIRNIARHLAQVGDSFDRSI-NH2 [F(4) BID BH3 peptide],11.9 µM
7,Ac-EDIIRNIARHLAQVGDSMDRSI-NH2 [WT BID BH3 peptide],12.2 µM
8,Ac-EDIWRNIARHLAQVGDSMDRSI-NH2 [W(0) BID BH3 peptide],10.8 µM
9,Ac-EDIIRNIARHLAQFGDSMDRSI-NH2 [F(3) BID BH3 peptide],11.3 µM
10,Ac-EDIIRNIARHLAQMGDSMDRSI-NH2 [M(3) BID BH3 peptide],4.6 µM

# Molecular target: T2, tevBAK (residues 22–186)
# Experiment: ITC
row,Binder,Kd
1,Ac-EDIIRNIARHLAQVGDSMDRSI-NH2 [WT BID BH3 peptide],22.7 µM
2,Ac-EDIIRNIARHLAQWGDSMDRSW-NH2 [W(3)W(5) BID BH3 peptide],0.25 µM
